The values that follow come from patent publication US20120195879A1.

One may read the koff as the first-order rate constant of dissociation. For orientation: kon means a measure of how fast the partners come together.

No end group written: not given here.

One experiment addresses DNP(31)-BSA (bovine) (UniProt P02769). As to the kind of experiment: SPR (BIAcore 2000), antibody captured on anti-human IgG Fc surface, DNP-BSA injected; apparent constants. In general terms: In SPR one partner is held on a chip, and binding of the other changes the refractive index at the surface.
The next experiment deals with DNP(3)-BSA (bovine). The description is as above.
The target in the next experiment is human Kv1.3 (human) (UniProt P22001). As to the kind of experiment: cell-based or functional assay.
For another experiment, the target named is human Kv1.1 (human) (UniProt Q09470). As to the kind of experiment: cell-based or functional assay.
human Kv1.1 (human), sequence (Q09470 whole entry): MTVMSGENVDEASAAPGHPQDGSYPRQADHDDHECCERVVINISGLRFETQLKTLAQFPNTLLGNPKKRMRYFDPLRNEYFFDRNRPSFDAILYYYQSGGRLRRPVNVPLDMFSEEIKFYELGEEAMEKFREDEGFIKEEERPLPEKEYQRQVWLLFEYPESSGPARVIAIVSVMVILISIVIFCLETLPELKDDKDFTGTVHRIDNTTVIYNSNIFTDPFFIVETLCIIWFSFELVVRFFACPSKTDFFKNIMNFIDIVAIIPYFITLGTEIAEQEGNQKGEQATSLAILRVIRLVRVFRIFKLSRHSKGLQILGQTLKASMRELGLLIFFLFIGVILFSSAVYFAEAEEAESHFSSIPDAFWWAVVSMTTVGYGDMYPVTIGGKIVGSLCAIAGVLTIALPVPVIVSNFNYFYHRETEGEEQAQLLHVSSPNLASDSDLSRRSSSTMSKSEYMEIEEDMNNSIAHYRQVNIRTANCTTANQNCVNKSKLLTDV

DNP(3)-BSA (bovine), sequence (P02769 25-607 limits assumed, form in doubt): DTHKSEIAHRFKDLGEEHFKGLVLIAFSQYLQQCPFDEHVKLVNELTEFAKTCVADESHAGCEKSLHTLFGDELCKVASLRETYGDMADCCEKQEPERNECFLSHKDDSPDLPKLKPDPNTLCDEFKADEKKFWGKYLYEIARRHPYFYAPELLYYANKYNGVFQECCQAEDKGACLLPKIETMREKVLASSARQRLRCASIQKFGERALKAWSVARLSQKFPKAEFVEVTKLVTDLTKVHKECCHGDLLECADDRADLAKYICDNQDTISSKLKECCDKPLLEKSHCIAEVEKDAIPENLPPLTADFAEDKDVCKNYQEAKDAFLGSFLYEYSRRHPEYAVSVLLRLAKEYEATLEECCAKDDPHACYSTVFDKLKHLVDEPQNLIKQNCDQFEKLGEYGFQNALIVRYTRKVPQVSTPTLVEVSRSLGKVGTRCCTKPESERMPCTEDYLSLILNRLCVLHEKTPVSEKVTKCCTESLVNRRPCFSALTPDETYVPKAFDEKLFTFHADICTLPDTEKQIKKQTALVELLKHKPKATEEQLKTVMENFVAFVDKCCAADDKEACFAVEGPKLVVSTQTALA
DNP(31)-BSA (bovine), sequence (P02769 25-607 limits assumed, form in doubt): as above
human Kv1.3 (human), sequence (P22001 whole entry): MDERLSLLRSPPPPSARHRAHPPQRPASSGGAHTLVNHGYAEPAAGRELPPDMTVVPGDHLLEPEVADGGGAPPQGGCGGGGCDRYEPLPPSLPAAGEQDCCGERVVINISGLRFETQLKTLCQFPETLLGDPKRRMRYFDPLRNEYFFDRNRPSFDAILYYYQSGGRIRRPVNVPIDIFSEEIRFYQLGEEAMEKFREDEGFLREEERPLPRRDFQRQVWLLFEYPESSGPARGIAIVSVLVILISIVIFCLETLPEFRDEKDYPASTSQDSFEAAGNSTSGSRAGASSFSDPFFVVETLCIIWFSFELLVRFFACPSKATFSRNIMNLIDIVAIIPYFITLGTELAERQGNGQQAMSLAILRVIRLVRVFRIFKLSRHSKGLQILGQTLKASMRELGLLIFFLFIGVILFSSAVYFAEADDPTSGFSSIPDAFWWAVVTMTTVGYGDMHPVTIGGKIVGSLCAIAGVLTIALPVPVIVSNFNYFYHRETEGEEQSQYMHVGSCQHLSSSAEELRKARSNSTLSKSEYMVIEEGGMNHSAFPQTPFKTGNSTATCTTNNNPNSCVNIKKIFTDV

B1: aDNP 3A1 antibody (hybridoma) (antibody, human IgG2, kappa, V domains shown)
VH: QVQLQESGPGLVKPSETLSLTCTVSGGSISHYYWSWIRQPPGKGLGWIGYIYYSGSTNYNPSLKSRVTISVDTSKNQFSLKLTSVTAADTAVYYCARARGDGYNYPDAFDIWGQGTMVTVSS
VL: DIQMTQSPSSVSASVGDRVTITCRASQGISNWLAWYQRKPGKAPKLLIYAASSLQSGVPSRFSGSGSGTDFTLTISSLQPEDFAAYYCQQASSFPWTFGQGTRVEIKR
B1: in the experiment with DNP(31)-BSA (bovine), the Kd was found to be 9000 pM, the koff amounted to 0.00031 s⁻¹ and the on-rate (kon) was determined as 34000 M⁻¹ s⁻¹. In addition, in the experiment with DNP(3)-BSA (bovine), the Kd is 526000 pM, the off-rate (koff) amounted to 0.00065 s⁻¹ and the kon turned out to be 1200 M⁻¹ s⁻¹.
In the case of Fc-GGGGSGGGGSSCIDTIPKSRCTAFQCKHSMKYRLSFCRKTCGTC (Fc fusion, ends and bridges not checked; also: homodimer via Fc) [Bivalent Fc-L10-ShK[2-35] homodimer], in the experiment with human Kv1.3 (human), the Kv1.1/Kv1.3 Selectivity Ratio by PX amounted to 3.54; the Kv1.3 (PX) IC50 is 116 pM; the Potency Relative to ShK (WB, IL2) was found to be 8.73. In the experiment with human Kv1.1 (human), this molecule came in with a Kv1.1 (PX) IC50 of 411 pM.

B2: aDNP 3B1 antibody (hybridoma) (antibody, human IgG2, kappa, V domains shown)
VH: QVQLQESGPGLVKPSETLSLTCTVSGGSISSYYWSWIRQPPGKGLEWIGYIYYSGNTNSNPSLKSRVTISVDTSKNQFSLKLSSVTAADTAVYYCARTYYDSSGYYYRAFDIWGQGTMVTVSS
VL: DIQMTQSPSSLSASEGDRVTITCRASQGIRNDLGWYQQKPGKAPKRLIYAASSLQSGVPLRFSGSGSGTEFTLTISSLQPEDFATYYCLQYNSYPWTFGQGTKVEIKR
Turning to B2, in the experiment with DNP(31)-BSA (bovine), the Kd came out at 200 pM, the koff came to 5.8e-05 s⁻¹ and the kon was found to be 370000 M⁻¹ s⁻¹. In the experiment with DNP(3)-BSA (bovine), the Kd came to 3000 pM, the koff stood at 0.00036 s⁻¹ and the kon stood at 140000 M⁻¹ s⁻¹.

B3: aDNP 3B1 antibody (recombinant, IgG2) (antibody, V domains shown)
VH: QVQLQESGPGLVKPSETLSLTCTVSGGSISSYYWSWIRQPPGKGLEWIGYIYYSGNTNSNPSLKSRVTISVDTSKNQFSLKLSSVTAADTAVYYCARTYYDSSGYYYRAFDIWGQGTMVTVSS
VL: DIQMTQSPSSLSASEGDRVTITCRASQGIRNDLGWYQQKPGKAPKRLIYAASSLQSGVPLRFSGSGSGTEFTLTISSLQPEDFATYYCLQYNSYPWTFGQGTKVEIKR
With B3, in the experiment with DNP(31)-BSA (bovine), the Kd amounted to 700 pM, the koff worked out at 0.00031 s⁻¹ and the kon turned out to be 420000 M⁻¹ s⁻¹.
On to Fc-GGGGSGGGGSRSCIDTIPKSRCTAFQCKHSMKYRLSFCRKTCGTC (Fc fusion, ends and bridges not checked; also: homodimer via Fc) [Bivalent Fc-L10-ShK[1-35] homodimer], for which, in the experiment with human Kv1.3 (human), the Kv1.1/Kv1.3 Selectivity Ratio by PX was found to be 4.47; the Kv1.3 (PX) IC50 was 15 pM; the Potency Relative to ShK (WB, IL2) was 5.76. In addition, the Kv1.1 (PX) IC50 with human Kv1.1 (human) stood at 67 pM.
